In patent US20260139017A1 (GENERAL HOSPITAL, published 2026):
Numbering of substitutions follows the chain as printed. Names and notes keep the numbering of the source. Blank lines part the entries; values can stand above or below the binder they belong to.

Key:
VLDLr (8444-VL, R&D) = VLDLr (8444-VL, R&D) (UniProt P98155 28-797, limits assumed); experiment: ELISA on coated receptor
Experimental: (§1) Enzyme-linked immunosorbent assay (ELISA) was used to quantify changes in binding of RELN variants (media-derived full-length or CTR-RELN) to either VLDLr or ApoEr2 following an optimized version of a previously published protocol (6). Briefly, ELISA strips (DY008, R&D Systems) were coated with one ng/μL (100 μL/well) of VLDLr (8444-VL, R&D) or ApoEr2 (TP320903, OnGene) receptors diluted in 25 mM Tris HCl, 140 mM NaCl, […], two mM CaCl₂), pH 7.4 (TBS-C buffer). After 18 h at four ° C. incubation, plates were blocked one h with three % BSA (22070008-6, Bioworld), 0.05% Tween-20 (Sigma Aldrich) TBS-C buffer. We assessed binding via incubation with 100 μL/well of serial dilutions of recombinant RELN protein (Ser1221-Gln2666, 8546-MR-050, R&D) or RELN variants in TBS-C buffer for one hour at room temperature. For detection, we used goat anti-mouse RELN primary antibody (LS-C793521-100, LS-Bio, 1:2,000, 100 μL/well) as primary antibody for one h at R.T. and (1:10,000; 100 μL/well, donkey anti-goat IgG H&L, HRP, ab6885, Abcam) as secondary antibody for 30 min. at R.T. Between each of the previous steps, plates were washed four times with TBS-C buffer (200 μL/well). Plates were washed three times prior to initiating the colorimetric reaction (DY008, R&D Systems). Stop solution (50 μL/well, DY008, R&D Systems) was added upon five min. incubation and the absorbance of the samples was measured at 450 nm using the Synergy 2 microplate reader (BioTek Instruments). Processing and analysis of the data was done using Gen5 1.11 software and GraphPad Prism, respectively.

[1] = target: T1, ApoEr2 (TP320903, OnGene) (UniProt Q14114 33-963, limits assumed); experiment: ELISA on coated receptor
T1 sequence (looked up): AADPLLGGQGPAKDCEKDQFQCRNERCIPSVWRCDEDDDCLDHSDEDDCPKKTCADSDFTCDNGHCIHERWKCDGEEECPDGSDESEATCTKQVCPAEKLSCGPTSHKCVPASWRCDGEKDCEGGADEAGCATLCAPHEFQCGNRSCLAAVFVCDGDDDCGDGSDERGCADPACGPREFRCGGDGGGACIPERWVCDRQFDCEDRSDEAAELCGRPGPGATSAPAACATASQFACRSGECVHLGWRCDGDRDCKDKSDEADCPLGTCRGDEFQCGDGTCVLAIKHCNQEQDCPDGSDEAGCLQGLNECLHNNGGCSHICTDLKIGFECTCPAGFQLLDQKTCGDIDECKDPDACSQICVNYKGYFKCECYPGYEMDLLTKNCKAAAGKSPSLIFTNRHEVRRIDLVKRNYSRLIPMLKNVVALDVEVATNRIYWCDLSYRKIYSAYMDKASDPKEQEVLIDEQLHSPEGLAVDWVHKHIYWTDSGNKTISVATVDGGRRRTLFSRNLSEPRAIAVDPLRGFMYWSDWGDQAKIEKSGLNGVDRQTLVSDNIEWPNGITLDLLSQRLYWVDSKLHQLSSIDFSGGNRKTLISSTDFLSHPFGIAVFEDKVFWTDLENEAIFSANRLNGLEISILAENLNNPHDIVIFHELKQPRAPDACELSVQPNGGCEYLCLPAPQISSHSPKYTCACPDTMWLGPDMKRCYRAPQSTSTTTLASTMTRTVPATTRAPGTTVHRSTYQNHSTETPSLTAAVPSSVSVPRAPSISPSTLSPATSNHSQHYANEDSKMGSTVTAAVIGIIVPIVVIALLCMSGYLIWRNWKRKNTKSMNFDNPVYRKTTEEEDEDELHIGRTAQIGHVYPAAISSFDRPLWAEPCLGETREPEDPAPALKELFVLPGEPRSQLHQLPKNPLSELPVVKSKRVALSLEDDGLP
Experimental: as §1

[2] = target: T2, Neuropilin 1 (NRP1), R&D 3870-N1-025 (UniProt O14786-2 22-644, biotinylated at a 1:2 molar ratio); experiment: BLI (Octet), biotinylated NRP1 on SA biosensor, 1:1 global fit
T2 construct: Biotinylated and immobilised on streptavidin biosensor tips; also called Neurophilin 1
T2 sequence (looked up): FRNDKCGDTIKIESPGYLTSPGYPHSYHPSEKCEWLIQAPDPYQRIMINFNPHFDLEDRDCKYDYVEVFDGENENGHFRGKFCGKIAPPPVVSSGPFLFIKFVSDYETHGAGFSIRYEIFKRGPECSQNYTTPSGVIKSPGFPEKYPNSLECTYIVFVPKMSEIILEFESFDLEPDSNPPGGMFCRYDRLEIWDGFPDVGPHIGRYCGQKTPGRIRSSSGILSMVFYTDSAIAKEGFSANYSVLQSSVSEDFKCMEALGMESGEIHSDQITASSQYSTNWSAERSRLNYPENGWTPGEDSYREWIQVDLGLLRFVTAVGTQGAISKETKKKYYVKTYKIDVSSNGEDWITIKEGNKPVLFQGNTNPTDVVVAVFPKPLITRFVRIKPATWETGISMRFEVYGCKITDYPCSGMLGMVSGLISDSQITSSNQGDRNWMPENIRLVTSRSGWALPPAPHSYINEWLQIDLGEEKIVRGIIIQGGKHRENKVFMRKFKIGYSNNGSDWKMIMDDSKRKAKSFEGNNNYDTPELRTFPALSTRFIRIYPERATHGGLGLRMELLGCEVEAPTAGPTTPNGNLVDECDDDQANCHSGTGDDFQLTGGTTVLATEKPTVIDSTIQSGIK
Experimental: (§2) Bio-layer interferometry (BLI) was used to assess NRP1-protein kinetics at 30° C. and 1000 rpm agitation using previously published methods. 1 mg/mL NRP1 (R&D 3870-N1-025) was biotinylated at a 1:2 molar ratio, desalted, and immobilized on the SA biosensor tip (Pall ForteBio) surface. This was followed by 1) 180 seconds baseline buffer diluent, 2) loading of the ligand (NRP1), 3) 180 seconds baseline buffer diluent, 4) 240 seconds association (analyte), and 5) 300 seconds disassociation in assay buffer. Assay buffer: SD Buffer (pH7.4 PBS, 0.05% tween20, 0.01% BSA).
(§3) The experimental data were fit with the 1:1 binding model and analyzed with global fitting using Octet Data Analysis software to calculate KD.

[3] = target: T2, Neuropilin 1 (NRP1), R&D 3870-N1-025; experiment: BLI, NRP1 on biosensor
Experimental: as §2, §3

[4] = target: Amyloid beta (Abeta42; beta-Amyloid (1-42)) (UniProt P05067 672-713); experiment: cell-based or functional assay
Sequence of Amyloid beta (Abeta42; beta-Amyloid (1-42)) (P05067 672-713 limits assumed): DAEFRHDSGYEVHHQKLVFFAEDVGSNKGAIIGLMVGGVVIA

B1: C-terminal region of RELN (CTR-RELN) WT recombinant peptide, long (peptide)
peptide: RKQNYMMNFSRQHGLRHFYNRRRRSLRRYP
notes: also called WT long; C-terminal RELN WT uncleaved
- binding result (VLDLr (8444-VL, R&D)): no binding
- binding result [1]: no binding

B3: Fc-fusion CTR-RELN WT (184I pfcn-huIgG2-C-termH3447WT) (Fc fusion)
chain: APLERKSSVECPPCPAPPVAGPSVFLFPPKPKDTLMISRTPEVTCVVVDVSHEDPEVQFNWYVDGVEVHNAKTKPREEQFNSTFRVVSVLTVVHQDWLNGKEYKCKVSNKGLPAPIEKTISKTKGQPREPQVYTLPPSREEMTKNQVSLTCLVKGFYPSDIAVEWESNGQPENNYKTTPPMLDSDGSFFLYSKLTVDKSRWQQGNVFSCSVMHEALHNHYTQKSLSLSPGARTSTRKQNYMMNFSRQHGLRHFYNRRRR
notes: also called Fc-WT
- Kd [2]: 610 nM
- koff [2]: 0.00573 s⁻¹
- kon [2]: 9400 M⁻¹ s⁻¹
- fold less affinity than VEGF [3]: 100 fold

B4: Fc-fusion CTR-RELN H3447R (184J pfcn-huIgG2-C-termH3447R) (Fc fusion)
chain: B3 chain with H252R
notes: also called Fc-H3447R
- Kd [2]: 79.3 nM
- koff [2]: 0.00102 s⁻¹
- kon [2]: 12900 M⁻¹ s⁻¹
- fold affinity against wild-type CTR-RELN [3]: 10 fold

Second part, the binder after the results:

- binding result (VLDLr (8444-VL, R&D)): no binding
- binding result [1]: no binding
B2: C-terminal region of RELN (CTR-RELN) H3447R recombinant peptide, long (peptide)
peptide: B1 peptide with H17R
notes: also called H3447R long; C-terminal RELN H3447R uncleaved

- Thioflavin T fluorescence assay of Abeta aggregation, fold aggregation against H3447K short [4]: ~3 fold
Binder: RKQNYMMNFSRQHGLRDFYNRRRR [Reelin CTR peptide H3447D short]
